Experiments:
[1] = molecular target: zonula occludens 1 (rat alveolar epithelial cells) (rat); assay: STORM co-localization, rat AECs without YFP-claudin-5
[2] = molecular target: zonula occludens 1 (rat alveolar epithelial cells) (rat); assay: STORM co-localization, rat AECs transduced with YFP-claudin-5
[3] = molecular target: zonula occludens 1 (rat alveolar epithelial cells) (rat); assay: STORM co-localization, untransduced rat AECs
[4] = molecular target: T1, zonula occludens 1 (rat alveolar epithelial cells) (rat, UniProt A0A0G2K2P5 1-1765); assay: STORM co-localization in rat AECs (FIG. 4C)
T1 construct: Endogenous cytoplasmic protein within primary rat AECs (not a surface protein); also called ZO-1
T1 sequence (A0A0G2K2P5 whole entry): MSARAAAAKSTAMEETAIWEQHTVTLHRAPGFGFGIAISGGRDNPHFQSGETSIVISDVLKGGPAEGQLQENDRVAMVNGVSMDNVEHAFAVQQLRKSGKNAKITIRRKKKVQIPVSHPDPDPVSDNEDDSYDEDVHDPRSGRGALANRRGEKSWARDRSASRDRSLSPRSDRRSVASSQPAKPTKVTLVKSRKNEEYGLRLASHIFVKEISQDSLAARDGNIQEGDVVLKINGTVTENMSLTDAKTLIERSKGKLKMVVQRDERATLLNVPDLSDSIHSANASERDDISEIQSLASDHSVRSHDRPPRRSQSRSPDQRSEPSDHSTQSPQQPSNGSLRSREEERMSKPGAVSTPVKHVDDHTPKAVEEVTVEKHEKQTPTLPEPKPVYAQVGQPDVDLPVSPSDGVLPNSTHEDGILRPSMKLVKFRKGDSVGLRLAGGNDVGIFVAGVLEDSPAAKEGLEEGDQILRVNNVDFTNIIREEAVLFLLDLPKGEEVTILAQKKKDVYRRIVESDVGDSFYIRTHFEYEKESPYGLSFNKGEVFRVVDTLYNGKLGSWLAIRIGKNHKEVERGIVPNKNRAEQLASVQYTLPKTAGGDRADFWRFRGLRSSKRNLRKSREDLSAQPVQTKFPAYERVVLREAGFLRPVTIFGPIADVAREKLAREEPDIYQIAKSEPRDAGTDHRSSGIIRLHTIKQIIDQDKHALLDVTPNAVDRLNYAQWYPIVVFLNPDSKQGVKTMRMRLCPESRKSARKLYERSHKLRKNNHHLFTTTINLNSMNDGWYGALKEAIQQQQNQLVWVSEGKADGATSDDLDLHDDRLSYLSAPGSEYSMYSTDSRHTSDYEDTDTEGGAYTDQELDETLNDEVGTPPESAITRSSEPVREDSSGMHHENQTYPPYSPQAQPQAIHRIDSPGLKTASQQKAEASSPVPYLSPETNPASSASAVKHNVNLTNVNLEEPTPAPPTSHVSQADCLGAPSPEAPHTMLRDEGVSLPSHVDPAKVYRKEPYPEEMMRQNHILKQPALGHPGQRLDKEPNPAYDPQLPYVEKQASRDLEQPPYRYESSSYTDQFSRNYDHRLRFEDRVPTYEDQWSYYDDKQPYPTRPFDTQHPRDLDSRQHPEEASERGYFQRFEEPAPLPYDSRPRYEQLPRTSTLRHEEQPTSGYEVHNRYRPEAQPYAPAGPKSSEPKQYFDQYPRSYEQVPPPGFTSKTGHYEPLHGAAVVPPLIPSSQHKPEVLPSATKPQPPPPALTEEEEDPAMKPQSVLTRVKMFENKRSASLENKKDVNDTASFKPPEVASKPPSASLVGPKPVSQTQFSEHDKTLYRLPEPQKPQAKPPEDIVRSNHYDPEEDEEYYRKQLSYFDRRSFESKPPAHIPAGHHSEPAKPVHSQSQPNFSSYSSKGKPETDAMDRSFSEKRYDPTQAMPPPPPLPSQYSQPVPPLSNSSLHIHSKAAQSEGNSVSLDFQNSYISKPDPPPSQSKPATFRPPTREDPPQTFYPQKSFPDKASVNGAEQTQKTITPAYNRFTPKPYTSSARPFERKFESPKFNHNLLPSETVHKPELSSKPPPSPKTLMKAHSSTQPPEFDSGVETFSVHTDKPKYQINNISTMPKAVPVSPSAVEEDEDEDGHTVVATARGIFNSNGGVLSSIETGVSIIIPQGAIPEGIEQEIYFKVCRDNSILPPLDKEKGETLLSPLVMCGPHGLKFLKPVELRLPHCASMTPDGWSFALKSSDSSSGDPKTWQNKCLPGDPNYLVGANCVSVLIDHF

zonula occludens 1 (rat alveolar epithelial cells) (rat), sequence (A0A0G2 entry or part of it limits assumed): as the sequence (A0A0G2K2P5 whole entry) above

Molecule	co-localization [1]	co-localization [2]	co-localization index [3]	binding result [4]
native claudin-18 (rat alveolar epithelial cells) (from UniProt Q5I0E5 1-261)	31%	16%	30.5%	
native claudin-5 (rat alveolar epithelial cells) (other, UniProt Q9JKD6 1-218, looked up, whole, on cells; Endogenous protein in primary rat AECs from control-fed or alcohol-fed rats; detected with antibodies (co-immunopurification, STORM, PLA); also called Cldn-5) MGSAALEILGLVLCLVGWVGLILACGLPMWQVTAFLDHNIVTAQTTWKGLWMSCVVQSTGHMQCKVYESVLALSAEVQAARALTVGAVLLALVALFVTLTGAQCTTCVAPGPVKARVALTGGALYALCGLLALVPLCWFANIVVREFYDPTVPVSQKYELGAALYIGWAASALLMCGGGLVCCGAWVCTGRPEFSFPVKYSAPRRTTANGDYDKKNYV				binds
